Experimental data reported in US20220406376A1 (MacroGenics, published 2022).

Tests used:
[1] = target: T1, CD137 on the surface of cells (activated human T cells; engineered CHO cells) (human, UniProt Q07011 24-255); experiment: flow cytometry on activated pan T cells gated CD8+ (donor D43867), anti-hFc APC MFI
T1 construct: whole, on cells; also called human CD137; cell surface expressed CD137
Protocol: (§1) Three antibodies were selected for further study. For such evaluations, purified pan T-cells (see above) were stimulated with anti-CD3/CD28 beads (cells:beads=1:1) for 72 hours in the presence of IL-2 (100 U/mL). 100 μL of activated T cells (1.0×10⁶ cells/mL) and 100 μL of serially diluted (5- or 10-fold dilutions) test article (antibody or bispecific diabody) was added to each well of microtiter assay plate(s), mixed and incubated at RT for 45 min. The cells were washed with FACS Buffer and secondary antibody (anti-human-Fc region-APC) was then added to each well; mixed and incubated at RT for 30 min. Cells were then washed FACS Buffer and T cell surface marker antibodies (anti-CD4 labeled with V510, and anti-CD8 labeled with FITC) were then added to each well; mixed and incubated at RT for 30 min. Cells were washed and resuspended in 100 μL FACS Buffer and analyzed by flow cytometry (BD LSR Fortessa or FACSCanto 11) for cell event collection. Data analysis were performed via FloJo v10.

[2] = target: T1, CD137 on the surface of cells …; experiment: flow cytometry on activated pan T cells gated CD4+ (donor D43867), anti-hFc APC MFI
Protocol: as §1

[3] = target: T2, extracellular portion of human CD137 fused to a histidine-containing peptide (human, UniProt Q07011 24-186); experiment: Attana Cell A200 QCM; antibody captured by anti-human IgG Fc; soluble human CD137-His; grade relative to (1B.3); row with VL12
T2 construct: extracellular domain; also called huCD137; His-tagged soluble human CD137

[4] = target: T2, extracellular portion of human CD137 …; experiment: SPR (BIACORE); antibody captured on anti-human Fc; huCD137 25 and 100 nM; 1:1 Langmuir
Protocol: (§2) Thus, an extracellular portion of human CD137 fused to a histidine-containing peptide (“huCD137”) was passed over a surface coated with immobilized antibody. Briefly, each test molecule was captured onto an F(ab)₂ goat-anti-human Fc-coated surface and then incubated in the presence of different concentrations (25 nM and 100 nM) of huCD137. The kinetics of binding were determined via BIACORE® analysis binding (normalized 1:1 Langmuir binding model).

[5] = target: T2, extracellular portion of human CD137 …; experiment: SPR (BIACORE), against chCD137 MAB-4
Protocol: as §2

T1 sequence (Q07011 24-255, change not shown): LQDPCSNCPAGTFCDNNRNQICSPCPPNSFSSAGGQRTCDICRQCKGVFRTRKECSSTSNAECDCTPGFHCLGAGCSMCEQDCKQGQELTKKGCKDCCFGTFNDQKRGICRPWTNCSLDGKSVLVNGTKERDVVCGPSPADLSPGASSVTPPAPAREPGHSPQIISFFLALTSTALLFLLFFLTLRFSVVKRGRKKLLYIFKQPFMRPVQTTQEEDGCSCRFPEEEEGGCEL

Binder | EC50 (read off the curve) [1] [ng/mL] | EC50 (read off the curve) [2] [ng/mL] | binding result [3] | Kd [4] [nM] | koff [4] [s⁻¹] | kon [4] [M⁻¹ s⁻¹] | fold decrease in binding affinity relative to the murine antibodies [5] [fold]
hCD137 MAB-3 (1E.15) (antibody, V domains shown) VH: QVQLVQSGAEVKKPGASVKVSCKASGYTFTSYWINWVRQAPGQGLEWIGNIYPSDSYTNYNQKFKDKATITADKSTSTAYMELSSLRSEDTAVYYCTRDYGSAYSMSTWGQGTTVTVSS VL: DIQMTQSPSSLSASVGDRVTITCQASQDISNYLNWYQQKPDKTVKLLIYYTGRARSGVPSRFSGSGSGTDFTFTISSLQPEDIATYFCQQGDTLPYTFGQGTKLEIK | ~5 | ~6 |  |  |  |  | 
hCD137 MAB-3 (1G.15) (antibody, V domains shown) VH: QVQLVQSGAEVKKPGASVKVSCKASGYTFTSYWINWVRQAPGQGLEWAGNIYPSDSYTNYNQKFKDKATITADKSTSTAYMELSSLRSEDTAVYYCTRDYGSAYSMSTWGQGTTVTVSS VL: DIQMTQSPSSLSASVGDRVTITCQASQDISNYLNWYQQKPDKTVKLLIYYTGRARSGVPSRFSGSGSGTDFTFTISSLQPEDIATYFCQQGDTLPYTFGQGTKLEIK | ~8 | ~10 |  |  |  |  | 
hCD137 MAB-3 VH1B with VL12 (I48A/S52T) (antibody, V domains shown) VH: QVQLVQSGAEVKKPGASVKVSCKASGYTFTSYWINWVKQAPGQGLEWIGNIYPSDSYTNYNQKFKDKATITADKSTSTAYMELSSLRSEDTAVYYCTRDYGSAYSMSTWGQGTTVTVSS VL: DIQMTQSPSSLSASVGDRVTITCRPSQDISNYLNWYQQKPDKTVKLLAYYTTRLRSGVPSRFSGSGSGTDFTFTISSLQPEDIATYFCQQGDTLPYTFGQGTKLEIK |  |  | binds |  |  |  | 
hCD137 MAB-4 (1.1) (antibody, V domains shown, also called chCD137 MAB-4 (1.1)) VH: QVQLVQSGAEVKKPGASVKVSCKASGYTFTSYWINWVRQAPGQGLEWMGNIYPSDSYTNYDQKFKDRVTMTRDTSTSTVYMELSSLRSEDTAVYYCTKSGEYGKIGYYAMDYWGQGTTVTVSS VL: DIQMTQSPSSLSASVGDRVTITCRASQDISNYLNWYQQKPDKTVKLLIYYTSRLHSGVPSRFSGSGSGTDYTLTISSLQPEDIATYFCQQGNTLPYTFGQGTKLEIK |  |  |  | 16.2 | 0.0021 | 130000 | ~2
hCD137 MAB-4 (1.2) (antibody, V domains shown, also called chCD137 MAB-4 (1.2)) VH: QVQLVQSGAEVKKPGASVKVSCKASGYTFTSYWINWVRQAPGQGLEWMGNIYPSDSYTNYDQKFKDRVTMTRDTSTSTVYMELSSLRSEDTAVYYCTKSGEYGKIGYYAMDYWGQGTTVTVSS VL: DIQMTQSPSSLSASVGDRVTITCRASQDISNYLNWYQQKPDKTVKLLIYYTSRLHSGVPSRFSGSGSGTDYTLTISSLQPEDIATYYCQQGNTLPYTFGQGTKLEIK |  |  |  | 13.6 | 0.0019 | 140000 | ~2
